We go through one molecule from patent publication KR20140085790A (dated 2014).

The IC50 is the midpoint of a concentration-inhibition curve. Read a high IC50 as weaker potency in that assay. The term Kd denotes the constant that tells how readily two partners part at equilibrium. Low readings indicate a tighter complex, high ones a looser complex.

For experiment [1], the target named is T1, 인간 DLL4 단백질 세포외 도메인 (R&D Systems Cat: 1506-D4/CF) (human, UniProt Q9NR61 27-529).
T1 construct: extracellular domain; Bought protein; also called hDLL4-His; human DLL4; not shown: His tag (hDLL4-His)
T1 sequence (Q9NR61 27-529): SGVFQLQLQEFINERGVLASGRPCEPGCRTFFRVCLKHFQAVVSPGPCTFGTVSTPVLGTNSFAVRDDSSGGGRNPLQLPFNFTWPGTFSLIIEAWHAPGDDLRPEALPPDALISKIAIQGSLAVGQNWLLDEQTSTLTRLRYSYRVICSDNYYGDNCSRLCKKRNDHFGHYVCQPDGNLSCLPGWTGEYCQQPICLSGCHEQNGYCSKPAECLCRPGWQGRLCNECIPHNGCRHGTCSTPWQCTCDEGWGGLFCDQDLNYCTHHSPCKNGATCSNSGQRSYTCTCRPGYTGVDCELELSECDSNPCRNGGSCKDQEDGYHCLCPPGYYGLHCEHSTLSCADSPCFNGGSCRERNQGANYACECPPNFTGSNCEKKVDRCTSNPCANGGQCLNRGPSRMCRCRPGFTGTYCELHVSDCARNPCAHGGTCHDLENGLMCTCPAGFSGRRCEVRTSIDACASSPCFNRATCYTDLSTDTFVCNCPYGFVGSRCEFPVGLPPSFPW
The experiment can be described thus: competition ELISA: antibody (2 pM-35 nM) premixed with DLL4 antigen (800 ng/ml), added to coated hNotch-1-hFc; bound DLL4 detected with an HRP anti-His reagent.

Experiment [2] has as its target T1, 인간 DLL4 단백질 세포외 도메인 (R&D Systems Cat: …). The experiment can be described thus: SPR (BIACORE T200), DLL4 coated on the chip, antibody injected. A general note: Surface plasmon resonance follows binding to a sensor surface in real time, without labels.

B1: 인간 단일클론항체 mh2F (항 DLL4 항체) (antibody, V domains shown)
VH: QVQLVQSGAEVKKPGASVKVSCKASGYTFTSYYLHWVRQAPGQGLEWMGIINPSGGSTSFAQKFQGRVTMTRDTSTSTVYMELSSLRSEDTAVYYCARDSAGGTLDVWGQGTMITVSS
VL: SYELTQPPSVSVAPGKTARITCGGNKIGNKGVHWYQQKPGQAPVLVIYYDKDRPSGIPERFSGSNSGNTATLTISRVEAGDEADYYCQVWDRSTVIFGGGTKLTVLG
notes: Isolated from a human scFv phage library; In ELISA it was detected with an HRP-conjugated anti-Fab reagent; also called anti-DLL4 antibody
On to B1, for which the IC50 in experiment [1] came to 1.03 nM. This molecule yielded a dissociation constant Kd in experiment [2] of 5.27 nM.
